Source: US20080032921A1
Like-named read-outs stand apart in the source and are kept apart here.

Assays:
[1] = molecular target: purified HLA DRB1*0101 (human); assay: competitive inhibition of 125I-labeled peptide binding to purified HLA
[2] = molecular target: purified HLA DRB1*0404 (human); assay: as above
[3] = molecular target: purified HLA DRB1*0701 (human); assay: as above
[4] = molecular target: purified HLA DRB1*1302 (human); assay: as above
[5] = molecular target: purified HLA DRB1*0405 (human); assay: as above
[6] = molecular target: purified HLA DRB1*0401 (human); assay: as above
[7] = molecular target: purified HLA DRB1*0301 (human); assay: as above
[8] = molecular target: purified HLA DRB1*1101 (human); assay: as above
[9] = molecular target: purified HLA DRB4*0101 (human); assay: as above
[10] = molecular target: purified HLA DRB5*0101 (human); assay: as above
[11] = molecular target: purified HLA DRB1*0802 (human); assay: as above
[12] = molecular target: purified HLA DRB1*1501 (human); assay: as above
HLA-DR DRB1*0301 (human) [13] = assay: competition vs 125I-labeled peptide, purified HLA
HLA-DR DRB1*0101 (human) [14] = molecular target: HLA-DR DRB1*0101 (human)
HLA-DR DRB1*0405 (human) [15] = molecular target: HLA-DR DRB1*0405 (human)
HLA-DR DRB1*0401 (human) [16] = molecular target: HLA-DR DRB1*0401 (human)
HLA-DR DRB1*1302 (human) [17] = molecular target: HLA-DR DRB1*1302 (human)
HLA-DR DRB1*0404 (human) [18] = molecular target: HLA-DR DRB1*0404 (human)
[19] = molecular target: purified HLA-DR DRB1*1101 (human); assay: competition with 125I-labelled reference peptide, purified HLA
[20] = molecular target: purified HLA-DR DRB1*1501 (human); assay: as above
[21] = molecular target: purified HLA-DR DRB1*0701 (human); assay: as above
[22] = molecular target: purified HLA-DR DRB5*0101 (human); assay: as above
[23] = molecular target: purified HLA-DR DRB4*0101 (human); assay: as above
[24] = molecular target: purified HLA-DR DRB1*0405 (human); assay: as above
[25] = molecular target: purified HLA-DR DRB1*0404 (human); assay: as above
[26] = molecular target: purified HLA-DR DRB1*0802 (human); assay: as above
[27] = molecular target: purified HLA-DR DRB1*0101 (human); assay: as above
[28] = molecular target: purified HLA-DR DRB1*0401 (human); assay: as above
HLA-DR DRB1*0101 (human) [29] = assay: competition with 125I-labelled peptide, purified HLA
HLA-DR DRB1*0301 (human) [30] = assay: as above
HLA-DR DRB1*1101 (human) = assay: as above
HLA-DR DRB1*0901 (human) = assay: as above
HLA-DR DRB1*0701 (human) = assay: as above
HLA-DR DRB1*0405 (human) [31] = assay: as above
HLA-DR DRB1*0802 (human) = assay: as above
HLA-DR DRB1*1501 (human) = assay: as above
HLA-DR DRB1*0401 (human) [32] = assay: as above
HLA-DR DRB1*1302 (human) [33] = assay: as above
HLA-DR DRB5*0101 (human) = assay: as above
HLA-DR DRB4*0101 (human) = assay: as above
HLA-DR DRB1*0404 (human) [34] = assay: as above

RREVHIYYLEKANKI (modifications not checked) [Flu.PA.127 peptide …]
IC50 [1]: 34 nM
IC50 [2]: 181 nM
IC50 [3]: 23 nM
IC50 [4]: 150 nM
IC50 [5]: 1490 nM
IC50 [6]: 63 nM
IC50 [7]: > 10 µM
IC50 [8]: 96 nM
IC50 [9]: 5 nM
IC50 [10]: 25 nM
IC50 [11]: 95 nM
IC50 [12]: 4.5 nM

CEQIADSQHRSHRQM (modifications not checked) [Flu.M1.154]
IC50 (HLA-DR DRB1*0301 (human) [13]): 804 nM
IC50 (HLA-DR DRB1*0101 (human) [14]): > 10 µM
IC50 (HLA-DR DRB1*0405 (human) [15]): > 10 µM
IC50 (HLA-DR DRB1*0401 (human) [16]): > 10 µM
IC50 (HLA-DR DRB1*1302 (human) [17]): > 10 µM
IC50 (HLA-DR DRB1*0404 (human) [18]): > 10 µM

ESAVLRGFLILGKED (modifications not checked) [Flu.PB2.690]
IC50 [19]: 1030 nM
IC50 [20]: 39 nM
IC50 [21]: 2470 nM
IC50 [22]: 303 nM
IC50 [23]: 1280 nM
IC50 [24]: 7.1 µM
IC50 [25]: 110 nM
IC50 [26]: 803 nM
IC50 [27]: 8.4 nM
IC50 [28]: 13.2 µM

SLMLQIGNMISIWVSHS (modifications not checked) [Flu.NA.21]
IC50 (HLA-DR DRB1*0101 (human) [29]): 8 nM
IC50 (HLA-DR DRB1*0301 (human) [30]): 441 nM
IC50 (HLA-DR DRB1*1101 (human)): 83 nM
IC50 (HLA-DR DRB1*0901 (human)): 86 nM
IC50 (HLA-DR DRB1*0701 (human)): 13 nM
IC50 (HLA-DR DRB1*0405 (human) [31]): 66 nM
IC50 (HLA-DR DRB1*0802 (human)): 89 nM
IC50 (HLA-DR DRB1*1501 (human)): 8 nM
IC50 (HLA-DR DRB1*0401 (human) [32]): 5 nM
IC50 (HLA-DR DRB1*1302 (human) [33]): 10 nM
IC50 (HLA-DR DRB5*0101 (human)): 24 nM
IC50 (HLA-DR DRB4*0101 (human)): 8 nM
IC50 (HLA-DR DRB1*0404 (human) [34]): 3 nM
